What follows are sequences tested against T1, ghrelin (D-enantiomer, rat) (Rattus norvegicus) (UniProt Q9QYH7) (assay: pulldown). Details: bead assay, active conformation; 37 C.
T1 sequence: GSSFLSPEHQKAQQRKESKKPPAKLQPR

| Sequence | Kd [nM] |
| --- | --- |
| GGAGCUCAGACUUCACUCGUGUGAGGCAAUAAAAACUUAAGUCCGAAGGUAACCAAUCCUACACGUACCACUGUCGGUUCCAC [E3] | < 100 |
| GGAGCUCAGACUUCACUCGUGUGAGGCAAUAAAACAUAAGUCCGAAGGUAACCAAUCCUACACGUACCACUGUCGGUUCCAC [B7] | < 100 |
| GGAGCUCAGACUUCACUCGUGUGAGGCAAUAAAACUUAAGUCCGAAGGUAACCAAUCCUGCACGUACCACUGUCGGUUCCAC [E12] | < 100 |
| GGAGCUCAGACUUCACUCGUGUGAGGCAAUAAAACUUGUAAGUCCGAAGGUAACCAAUCCUACACGUACCACUGUCGGUUCCAC [B12] | < 100 |
| GGAGCUCAGACUUCACUCGUGUGAGGCAGUAAAACUUAAGUCCGAAGGUAACCAAUCCUACACGUACCACUGUCGGUUCCAC [G2] | < 100 |
| GGAGCUCAGACUUCACUCGUGUGAGGUAGUAAAAAAAAAAAAAAAACAUAAAUCCGAAGGUAACCAAUCCUACACGUACCACUGUCGGUUCCAC [G5] | < 100 |
| GGAGCUCAGACUUCACUCGUGUGAGGUAGUAAAAAAAAAAAACGUAAAUCCGAAGGUAACCAAUCCUACACGUACCACUGUCGGUUCCAC [A12] | < 100 |
| GGAGCUCAGACUUCACUCGUGUGAGGUAGUAAAAAAAAAAACGUAAAUCCGAAGGUAACCAGUCCUACACGUACCACUGUCGGUUCCAC [F5] | < 100 |
| GGAGCUCAGACUUCACUCGUGUGAGGUAGUAAAAAAAAAACGUAAAUCCGAAGGUAACCAAUCCUACACGUACCACUGUCGGUUCCAC [A3] | < 100 |

Reference: patent US20060257867
